# From US9199028B2, “Use of entrained neutrophils to treat metastatic and micrometastatic disease in at risk patients” (MEMORIAL SLOAN-KETTERING CANCER CENTER, priority 2010, dated 2015)
# Test system: MDA-MB-231 cells
# Assay: In vitro killing assay: human neutrophils co-cultured with luciferase labelled MDA-MB-231 cells
# Format: cell-based
# Settings: naïve human neutrophils:tumor cells 1:1, chemokine 100 ng/ml (rhG-CSF 20 ng/ml), overnight
# Source text: Luciferase is under a constitutive promoter so cell death results in a decrease in luciferase activity because there is no transcription/translation of the lucierferase gene. The assay itself requires lysing of the cell to release the luciferase to mix with the luciferin and measure the luminescence. But it isn't that they dying cell releases luciferase. More signal means more luciferase which means more live cells. […]. […] Nave human neutrophils were co-cultured with MDA-MB-231 cells. […] Cells were seeded at a ratio of human neutrophils:human tumor cells=1:1.
# Antibodies used for immunohistochemistry—MMP9, F4/80 and CCR2 (all from AbCam), Myeloperoxidase (Dako), Ly-6G and Cd11b (both from BD), and Cleaved Caspase 3 (Cell signalling). Antibodies used for western blotting—Actin (Sigma), CCL2 (AbCam) and CCL5 (R&D) p-SMAD2 (cell signalling). Antibodies used for FACS analysis FITC-Ly-6G, FITC-Cd11b, FITC-F4/80, FITC-Cd34 and FITC-c-Kit (all from BD) and VEGFR1-AP (R&D). Neutrophil Depletion Neutrophil depletion was achieved using daily IP injections of 12.5 μg Rat anti-Gr-1 antibody (BD) or Rat anti-Ly-6G antibody (BD) starting on day 3 post tumour engraftment. Starting on day 14, neutrophil depleting antibodies were administered twice daily. Control mice were injected with […] Rat isotype control (BD). Neutrophil depletion was monitored by manual blood differentials and FACS analysis. Flow Cytometry Peripheral blood was collected into EDTA-coated tubes, washed and resuspended in FACS buffer solution (PBS, 2% heat-inactivated FCS, 5 mM EDTA, and 0.02% sodium azide). The samples were blocked with […] and then incubated with fluorophore-conjugated antibodies. Erythrocytes were then lysed with FACS lysing solution (BD Biosciences) and the cell suspensions were analyzed on a FACSCalibur (BD Biosciences). Colony Formation Assay Female nude mice were orthotopically injected with 5×10^6 puromicin resistant 4T1 cells. On days 7 and 14 post tumour engraftment the mice were sacrificed and perfused with PBS. The lungs and livers were removed, washed with PBS and dissociated with Collagenase A (Roche). The single cell suspension was then plated onto puromicin containing media and selected for 14 day. Colonies were stained with Methylene-Blue and counted manually. Mouse Neutrophil Purification Whole blood was collected by cardiac puncture using heparinized (Sigma) syringe. The blood was diluted with 5 volumes of PBS containing 0.5% BSA and subjected to a discontinuous Histopaque (Sigma) gradient (1.077 and 1.119). Neutrophils were collected from the 1.077-1.119 interface, lymphocytes and monocytes collected from the plasma-1.077 interface. RBCs were eliminated by hypotonic lysis. The cells were washed twice with PBS-BSA and re-suspended in OptiMEM (Invitrogen) 0.5% FBS in a final concentration of 2×10^6 cells/ml. Neutrophil purity and viability were determined visually and were consistently >98%. Human Neutrophil Purification As part of a Memorial Sloan-Kettering Cancer Center institutionally approved protocol, blood samples (˜10 cc) were collected from healthy volunteers or from patients who were already having blood drawn for pre-surgical testing. Patients were consented accordingly as part of the approved protocol. […] Patients had either mastectomies or lumpectomies planned and had blood drawn prior to definitive surgical removal of their primary tumor or chemotherapy. Blood samples were transferred to the lab for analysis no more than 1 hour post-blood draw. Heparinzed blood (20 U/ml final) was mixed with an equal volume of Dextran 500 (3% in saline) and incubated 30 minutes at room temperature. The leukocyte-rich supernatant was layered on top of histopaque 1077 (Sigma) and centrifuged. Neutrophils, collected in the pellet fraction, were resuspended in 10 ml 0.2% NaCl for 30 seconds to remove contaminating erythrocytes. Isotonicity was restored by the addition of 10 ml 1.6% NaCl. […]
molecule,measurement,value
"rhG-CSF: recombinant methionyl human granulocyte colony-stimulating factor (Neupogen, Amgen) (protein, chains of the INN, looked up, N-terminal methionine) MTPLGPASSLPQSFLLKCLEQVRKIQGDGAALQEKLCATYKLCHPEELVLLGHSLGIPWAPLSSCPSQALQLAGCLSQLHSGLFLYQGLLQALEGISPELGPTLDTLQLDVADFATTIWQQMEELGMAPALQPTQGAMPAFASAFQRRAGGVLVASHLQSFLEVSYRVLRHLAQP",neutrophil cytotoxicity / neutrophil mediated killing of MDA-MB-231 cells,does not induce neutrophil mediated cell killing
